Test results as given in article PMC10209884, “Hypochlorite-induced oxidation promotes aggregation and reduces toxicity of amyloid beta 1-42” (Redox Biology, 2023).

What was measured:
[1] = BisANS assay of surface exposed hydrophobicity; type: physicochemical; settings: NaOCl at sub-stoichiometric concentration vs Aβ1-42 in PBS alone, overnight, ambient room temperature, 10 μM Aβ1-42, 20 μM bisANS, 5 min, 25 °C, Ex 360 nm, Em 502 nm, mean of n = 10
Protocol: (§1) When incubations differed from these standard conditions for a specific experiment, the details are provided in the relevant figure legend and in the relevant section of the Methods section.
Aβ1-42 was treated with NaOCl and the solutions supplemented with excess L-Met. […] BisANS fluorescence (Excitation 360 nm, Emission 502 nm) was then measured using a Clariostar platereader (BMG Labtech). The data shown is the average BisANS fluorescence of n = 10 samples and is adjusted for background fluorescence.

[2] = Thioflavin T (ThT) assay of amyloid fibril formation; type: physicochemical
Protocol: Aβ1–42 (4–5 μM) was incubated at 28 °C with shaking in PBS ± NaOCl containing ThT (20–25 μM). The ThT fluorescence of the samples was continuously monitored using a Clariostar platereader with excitation and emission wavelengths of 440 nm and 480 nm (slit widths of 10 nm), respectively. The data shown is the mean fluorescence of triplicate samples and is adjusted for the background fluorescence. In additional experiments, Aβ1–42 was pre-treated with NaOCl in PBS for 1 h at ambient room temperature before being supplemented with excess L-Met (20 mM). A control sample of Aβ1–42 was incubated in the absence of NaOCl as described previously and supplemented with L-Met. Aβ1–42 preparations were then subjected to a ThT assay incubated at 37 °C under quiescent conditions, and monitored as described above. Half-time (t1/2) values are the time to reach half of the maximum ThT fluorescence, calculated after normalising the aggregation data for 3 independent assays.

[3] = Transmission electron microscopy of ThT assay end-point samples; type: physicochemical; settings: end-point samples of ThT assay after NaOCl pre-treatment; 2% uranyl acetate stain
Protocol: Samples from the ThT kinetics assay (endpoints) were prepared for TEM on 400-mesh carbon film coated copper grids (EM resolutions Ltd.) and stained with 2% (w/v) uranyl acetate. Grids were imaged with a FEI Tecnai G2 transmission electron microscope (Cambridge Advanced Imaging Centre, University of Cambridge) and subsequent images analyzed with SIS Megaview II Image Capture system (Olympus).

[4] = Size exclusion chromatography of Aβ1-42 assemblies; type: physicochemical; settings: 66.67 μM Aβ1-42, PBS, 1 h ambient room temperature
Description: The absorbance at 280 nm was used to monitor the elution of the peptide.

[5] = Electrospray mass spectrometry of Aβ1-42 oxidation by NaOCl; type: physicochemical; settings: 5-fold molar excess of NaOCl; 31 μM Aβ1-42, PBS, 1 h on ice/4 °C, quenched with 20 mM L-Met; electrospray MS
Protocol: Aβ1–42 (31 μM) was incubated with NaOCl (0–360 μM) in PBS on ice for 1 h and the reaction was quenched using L-Met (20 mM). Electrospray mass spectrometry was performed on a Xevo G2 mass spectrometer and data was analyzed using MassLynx software (Waters UK, Elstree, Hertfordshire, UK) at the Department of Chemistry, University of Cambridge.

[6] = system: SH-SY5Y neuroblastoma cells; test: Incucyte Cytotox Green cell death assay; type: cell-based, human; settings: Aβ1-42 (100 μM) pre-incubated with 80 μM NaOCl in Ham's/F12 2 h ambient room temperature; 15 μM Aβ1-42 on cells; vs Aβ1-42 without NaOCl
Protocol: Cell viability was also measured in real-time using Cytotox Green reagent (Essen Bioscience) in an Incucyte SX5 (Sartorius, South VIC, AUS), according to the manufacturer's instructions.

[7] = Filter trap assay (insoluble Aβ1-42 retained on cellulose acetate membrane); type: physicochemical; settings: co-incubation with 1.6-fold molar excess of NaOCl vs Aβ1-42 in PBS alone; Aβ1-42 55 μM, PBS pH 7.4, overnight, ambient room temperature; 0.22 μm cellulose acetate membrane, WO2 blot densitometry; mean of n = 3
Protocol: as §1
Following treatment with NaOCl, Aβ1-42 samples were subjected to filter trap assay in order to estimate the amount of peptide present in the insoluble fraction. […] Following extraction of the soluble fraction using a vacuum, the wells of the apparatus were washed three times using 0.01% (v/v) Triton-X in PBS. […] Blots were imaged after exposure to enhanced chemiluminescence reagent (Bio-Rad, NSW, AUS) using a ChemiDoc MP Imaging system (Bio-Rad, NSW, AUS).

[8] = Western blot analysis of SDS-resistant Aβ1-42 assemblies; type: physicochemical; settings: higher concentrations of NaOCl, PBS overnight at ambient room temperature; 10-20% tris-tricine gel, WO2 Western blot
Protocol: as §1
Gels were stained using Instant Blue stain (Abcam; Melbourne, VIC, AUS) and imaged with Geldoc Go imager (Bio-Rad, NSW, AUS).
Blots were imaged after exposure to enhanced chemiluminescence reagent (Bio-Rad, NSW, AUS) using a ChemiDoc MP Imaging system (Bio-Rad, NSW, AUS).

SH-SY5Y cells = test: Incucyte endocytosis assay (colocalization with Lysotracker Red); type: cell-based, human; settings: Aβ1-42-Hilyte-488 (50 μM) pre-treated with 160 μM NaOCl, compared to copper/H2O2 treatment, Ham's F12, 4 °C, 4 days; 1 μM on cells, 1 h; n = 27 areas from three wells
Protocol: Images of the cells were taken after 1 h using an Incucyte SX5 (Sartorius).
Aβ1-42-Hilyte-488 (50 μM) was incubated with 160 μM NaOCl or […]/H2O2 in Ham's/F12 or Ham's/F12 alone for 4 days at 4 °C. SH-SY5Y cells seeded at 15,000 cells/well in a 96-well plate were then treated with 1 μM of Aβ1-42-Hilyte-488 in NB27 containing 100 nM Lysotracker Red DND-99. Images of cells (9 images per well) were taken after 1 h using an Incucyte SX5 (Sartorius). Colocalization of Aβ1-42-Hilyte-488 with Lysotracker Red was calculated using Incucyte live cell analysis software.

cortical neurons = settings: in vitro, cortical neurons from rodents; cited from earlier work
Description: The exact concentration of hypochlorite generated in cerebral spinal fluid is not known, but myeloperoxidase has been measured in human cerebrospinal fluid (CSF) from cognitively normal donors at 101 ± 43 pg/ml with corresponding activity of 0.0292 ± 0.001 mU [34]. Although myeloperoxidase activity is much less in CSF than in human serum, human serum also contains high levels of albumin which acts as an antioxidant. […] Considering that 3-chl ...

For amyloid beta peptide 1–42 [Aβ1-42], the “BisANS fluorescence (surface exposed hydrophobicity)” value [1] was “substantial decrease”, the “amyloid-associated ThT fluorescence over a 7-hr time course” value ([2]; co-incubation with 2-fold molar excess of NaOCl, 5 μM Aβ1-42, 25 μM ThT, PBS, 28 °C, orbital shaking, mean of n = 4) was “significantly suppress” and the “increase in amyloid-associated ThT fluorescence (half-time t1/2)” value ([2]; pre-treatment with 1.6-fold molar excess of NaOCl in PBS 1 h RT, quenched with excess L-Met, 4 μM Aβ1-42, 25 μM ThT, 37 °C, mean of n = 3) was “significantly delayed”. For the same compound, the “amyloid-associated ThT fluorescence over the 15 h of the assay” value ([2]; pre-treatment with 3.2-fold molar excess of NaOCl in PBS 1 h RT, quenched with excess L-Met, 4 μM Aβ1-42, 25 μM ThT, 37 °C, mean of n = 3) was “prevented”, the “formation of amyloid fibrils by TEM” value [3] was “markedly reduced” and the “SEC apparent size of the majority of the peptide (monomer)” value ([4]; no NaOCl, Superdex 75 Increase 3.2/300, 0.05 ml/min, A280) was 4.5 kDa. For the same compound, the “fraction of the peptide oxidised (singly oxidised species, 4530 Da)” value [5] was “around half” and the “cell death after 72 h (green object count)” value [6] was “approximately halved”.

In the case of “NaOCl-treated Aβ1-42: Aβ1-42 pre-incubated with sodium hypochlorite; singly oxidised species in heterogeneous assemblies”, the “reduction in insoluble Aβ1-42 detected by filter trap assay” value [7] is reported as 95%, the “size of higher order SDS-resistant Aβ1-42 assemblies” value [8] is reported as ~150 kDa and the “SEC approximate molecular masses of predominate peaks” value ([4]; 2-fold molar excess of NaOCl (133.33 μM), Superdex 75 Increase 3.2/300, A280, ≥100 kDa = exclusion limit) is reported as ≥ 100 kDa. For the same compound, the “internalisation to lysosomes (colocalization area of Aβ1-42-Hilyte-488 and Lysotracker Red)” value (SH-SY5Y cells) was “preferentially internalise”.

In the case of `[Na+].[O-]Cl` [hypochlorite, sodium hypochlorite], the “hypochlorite concentration at which neurons are resistant to cell death” value (cortical neurons) is listed as “up to 200 μM”.
